Results on eight molecules are retold here after patent US20170267762A1 (APOLLOMICS, published 2017).

Sequences and labels used below:
B1: chimeric 7A4-hIgG4 (antibody)
heavy: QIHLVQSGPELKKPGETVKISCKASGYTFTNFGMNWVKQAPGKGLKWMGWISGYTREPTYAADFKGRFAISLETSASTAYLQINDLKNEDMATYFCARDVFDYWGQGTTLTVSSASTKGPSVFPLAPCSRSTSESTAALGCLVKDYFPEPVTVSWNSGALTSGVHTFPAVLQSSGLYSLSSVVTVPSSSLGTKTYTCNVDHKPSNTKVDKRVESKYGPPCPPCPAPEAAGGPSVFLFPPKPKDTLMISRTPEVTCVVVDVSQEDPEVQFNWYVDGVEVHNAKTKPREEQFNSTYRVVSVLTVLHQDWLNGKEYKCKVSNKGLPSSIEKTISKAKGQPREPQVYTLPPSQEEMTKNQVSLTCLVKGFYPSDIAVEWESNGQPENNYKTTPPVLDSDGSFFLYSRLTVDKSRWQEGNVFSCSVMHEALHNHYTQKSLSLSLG
light: DIVLTQSPASLAVSLGQRATISCRASESVDNYGYSFMNWFQQKPGQPPKLLIYRASNLESGIPARFSGSGSRTNFTLTINPVEADDVATYFCQQSNADPTFGGGTNLEIKRTVAAPSVFIFPPSDEQLKSGTASVVCLLNNFYPREAKVQWKVDNALQSGNSQESVTEQDSKDSTYSLSSTLTLSKADYEKHKVYACEVTHQGLSSPVTKSFNRGEC
notes: Full chimeric chains
B2: chimeric 7A4-hIgG1 (antibody)
heavy: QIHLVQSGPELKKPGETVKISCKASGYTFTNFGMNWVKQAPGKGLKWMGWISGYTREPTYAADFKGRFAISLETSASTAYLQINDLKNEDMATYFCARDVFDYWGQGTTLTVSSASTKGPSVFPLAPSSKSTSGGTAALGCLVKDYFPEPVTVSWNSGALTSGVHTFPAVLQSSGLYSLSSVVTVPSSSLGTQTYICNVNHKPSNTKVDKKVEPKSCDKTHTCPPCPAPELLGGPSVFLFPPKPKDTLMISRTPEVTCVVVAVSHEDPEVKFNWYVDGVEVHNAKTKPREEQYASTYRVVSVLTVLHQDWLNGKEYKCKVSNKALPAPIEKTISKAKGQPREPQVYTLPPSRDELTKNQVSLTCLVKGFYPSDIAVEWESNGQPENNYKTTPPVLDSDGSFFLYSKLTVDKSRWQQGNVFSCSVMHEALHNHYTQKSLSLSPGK
light: B1 light
notes: Full chimeric chains; also called 7A4-chimeric-IgG1
B3: chimeric 13F1-hIgG4 (antibody, V domains shown)
VH: DVQLQESGPGLVKPSQSLSLTCTVTGYSITSDYAWNWIRQFPGNQLEWMAYISYSGYTSYNPSLKSRISITRDTSKNQFFLQLNSVTTEDTATYYCARSLDYDYGTMDYWGQGTSVTVSS
VL: QIVLSQSPAILSASPGEKVTMTCRANSSVSSMHWYQQKPGSSPEPWIYAISNLAFGVPTRFSGSGSGTSYSLTISRVEAEDAATYFCQQWSSRPPTFGGGTKLEIKR
notes: Full chimeric chains; also called 13F1-chimeric
B4: chimeric 22A5-hIgG4 (antibody, V domains shown)
VH: EVKLVESGGGLVKPGGSLKLSCSASGFSFSYYDMSWVRQTPEKGLEWVATISGGGRNTYFIDSVKGRFTISRDNVKNNLYLLMSSLRSEDTALYYCASPYEGAVDFWGQGTSVTVSS
VL: DIVMTQSHKVMSTSVGDRVSITCKASQDVDNAVAWYQQNPGQSPKLLIKWASTRHHGVPDRFTGSGSGTDFTLTISTVQSEDLADFFCQQYSTFPYTFGGGTKLEIKR
notes: Mouse variable regions with human IgG4 constant region
B5: chimeric 10D1-hIgG4 (antibody, V domains shown)
VH: EVKLVESGGGLVKPGGSLKLSCAASGFTFSSYGMSWLRQTPEKRLEWVATMSGGGRDIYYPDSMKGRFTISRDNAKNNLYLQMSSLRSEDTALYYCARQYYDDWFAYWGQGTLVTVSA
VL: DIVLTQTPATLSVTPGDSVSLSCRASQSISNNLHWYQQKSHESPRLLIKYASQSISGIPSRFSGSGSGTDFTLNINSVETEDFGMYFCQQSNSWPLTFGAGTKLELKR
notes: as for B4
B6: chimeric 15H5-hIgG4 (antibody, V domains shown)
VH: EVKLVESGGGLVKPGGSLKLSCAASGFAFRSYDMSWVRQTPEKILEWVATISGGGSYTYYQDSVKGRFTISRDNARNTLYLQMSSLRSEDTALYYCASPYGPYFDYWGQGTTLTVSS
VL: DIQMNQSPSSLSASLGDTITITCHASQSINVWLSWYQQKPGNIPKLLIYRASNLHTGVPSRFSGSGSGTGFTLTISSLQPDDIATYYCQQGQSYPWTFGGGTKLEIKR
notes: as for B4
B7: chimeric 4C10-hIgG4 (antibody, V domains shown)
VH: QVQLKQSGPGLVQPSQNLSVTCTVSGFSLTTYGVHWVRQSPGKGLEWLGVIWSGGSTDYNAAFISRLTISKDNARSQVFFKMNSLQVNDTAMYYCAREKSVYGNYVGAMDYWGQGTSVTVSS
VL: SIVMTQTPKFLLVSAGDRVTITCKASQSVSDDVAWYQQKPGQSPKLLIYYAFNRYTGVPDRFTGSGYGTDFTFTISTVQSEDLAVYFCQQDYRSPWTFGGGTKLEIKR
notes: as for B4
B8: chimeric 14A6-hIgG4 (antibody, V domains shown)
VH: B3 VH with K76R
VL: B3 VL with T59A, S91N
notes: as for B4

Substitutions are numbered along the chain they refer to.

By IC50 is commonly meant the concentration needed to halve the response being measured. By EC50 is commonly meant the concentration at which the effect is half-maximal. Higher therefore signals weaker potency.

T2 sequence (chain, as listed by the source limits assumed): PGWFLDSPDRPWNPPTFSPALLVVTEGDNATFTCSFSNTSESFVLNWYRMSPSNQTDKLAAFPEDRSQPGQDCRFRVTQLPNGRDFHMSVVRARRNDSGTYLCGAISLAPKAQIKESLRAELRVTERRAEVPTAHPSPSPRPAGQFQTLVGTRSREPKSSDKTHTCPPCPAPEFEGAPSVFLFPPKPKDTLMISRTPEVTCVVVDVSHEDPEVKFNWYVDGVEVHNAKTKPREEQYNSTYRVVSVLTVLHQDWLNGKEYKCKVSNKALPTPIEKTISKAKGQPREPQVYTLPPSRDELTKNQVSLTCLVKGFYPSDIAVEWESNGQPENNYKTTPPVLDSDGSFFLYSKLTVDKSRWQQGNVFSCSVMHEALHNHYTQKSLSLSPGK
T3 sequence (Q15116 25-288): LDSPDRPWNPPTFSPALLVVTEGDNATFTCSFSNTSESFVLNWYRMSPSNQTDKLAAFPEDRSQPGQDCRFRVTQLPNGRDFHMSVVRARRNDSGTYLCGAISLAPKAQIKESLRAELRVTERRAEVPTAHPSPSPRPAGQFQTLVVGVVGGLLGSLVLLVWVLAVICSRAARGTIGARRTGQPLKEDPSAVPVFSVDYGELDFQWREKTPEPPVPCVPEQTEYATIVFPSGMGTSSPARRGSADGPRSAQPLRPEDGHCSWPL

The target in one assay is T1, human PD-1 extracellular domain fused with mouse Fc (PD-1-mFc) (human, UniProt Q15116 25-170).
T1 construct: extracellular domain; not used because of the label; also called hPD-1-mFc; human PD-1-mouse Fc fusion protein
T1 sequence (Q15116 25-170): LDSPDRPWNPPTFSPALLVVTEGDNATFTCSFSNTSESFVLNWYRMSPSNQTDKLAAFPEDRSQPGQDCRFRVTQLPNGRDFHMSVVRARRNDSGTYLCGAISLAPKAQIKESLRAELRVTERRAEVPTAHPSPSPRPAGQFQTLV
Kind of assay: ELISA ligand blockage: biotinylated PD-L1-mFc binding to plate-bound PD-1, OD450 (methods similar to Example 2: PD-1-mFc coated). As for the experimental part:
(§1) PD-1-mFc antigen (CrownBio) was suspended in PBS (Hyclone,Cat No:SH30256.01B) buffer (2 ug/ml, 100 ul/ well) and coated on the 96 well plate (costar, Cat No.:9018) 4° C. overnight. Plates were washed 3 times using washing buffer: PBS+0.05% Tween 20(Sigma, Cat No.:P1379). 200 ul of blocking buffer (PBS+1%BSA(Roche, Cat No.:738328)), was added to each well, incubated at 37° C. for 1 hour, and washed 3 times. Various concentrations (suitable dilutions of hybridoma supernatant in PBS) of the anti-PD-1 Abs were added to the wells (100 μl/well) and incubated at 37° C. for 1 hour. […] Secondary antibody (Avidin HRP eBioscience cat No.:E07418-1632, 1:500, 100 ul/well) was added, incubated at 37 ° C. for 0.5 hour, and washed 3 times. TMB (Sigma, Cat No.: T0440, 100 ul/well) was added, and incubated for 3 min at RT. To stop the reaction, 2N H2SO4 (100 ul/well), was added. The colorimetric signals were developed and read at 450 nm using a Auto Plate SpectraMax Plus (Supplier: Molecular Devices; Model: MNR0643; Software: SoftMax Pro v5.4).
Take B1: the IC50 was found to be 0.845 mg/L.
As for B2, the IC50 stood at 0.356 mg/L.
Take B3: the IC50 was determined as 0.878 mg/L.

For the next assay, the target named is T1, human PD-1 extracellular domain fused …. Kind of assay: blockage ELISA, coated PD-1-mFc, competitor PDL-1-mFc-biotin. As for the experimental part: as §1
(§2) Freestyle 293 cells (200 mL at 10⁶/mL) were transfected with 100 μg of each of the chimeric heavy and light chain expression plasmids and cultured for 6 days. The chimeric antibody in the supernatant was then purified with Protein-G column (GE healthcare).
A general note: ELISA stands for enzyme-linked immunosorbent assay.
B4 registered an IC50 of 1.01 mg/L.
The molecule B5 showed an IC50 of 1.03 mg/L.
Same read-out and setting: the value for B6 was 1.37 mg/L; that for B7 was 0.978 mg/L.
As to B1, the IC50 is 0.871 mg/L.
Take B3: the IC50 was 0.856 mg/L.
The molecule B8 yielded an IC50 of 0.823 mg/L.

Another assay concerns the target T2, human PD-1 extracellular domain fused with human Fc tag (hPD-1-hFc) (human).
T2 construct: also called human PD-1-hFc
Kind of assay: ELISA on coated PD1-hFc. As for the experimental part: (§3) ELISA binding analysis was conducted based on human PD-1-hFc Protein. 96-well plates (Costar, Cat No:9018) were coated with 100 μL of 2 μg/ml PD1-hFc (CrownBio) in coating buffer (PBS, Hyclone, Cat No:SH30256.01B) overnight at 4° C. The wells were aspirated and non-specific binding sites were blocked by adding 200 μL of blocking buffer with 1% (w/v) of bovine serum albumin (BSA, Roche, Cat No: 738328) and incubating for 1 hour at 37° C. After the plates are washed three times with wash buffer (PBS with 0.05%(v/v) Tween20 (Sigma, Cat No:P1379), 100 μL/well of a suitable dilutions of hybridoma supernatant in blocking buffer were added and incubated at room temperature for 1 hour. The plates were washed and incubated with 100 μL/well of Goat anti-Mouse IgG (H+L) (Thermo, Cat No: 31432) in blocking buffer for 60 min. After the plates were washed, 100 μL/well of substrate solution (TMB(eBioscience, Cat No:00-4201-56) was added and the plates were incubated for 2min at room temperature. 100 μL/well of stop solution (2N H2SO4) was added to stop the reaction. The colorimetric signals were developed and read at 450 nm using a Auto Plate SpectraMax Plus (Supplier: Molecular Devices; Model: MNR0643; Software: SoftMax Pro v5.4).
as §2
B4 displayed an EC50 of 0.0413 mg/L.
B5: the EC50 is 0.0588 mg/L.
B6 gave an EC50 of 0.0818 mg/L.
Consider B7, for which the EC50 is 0.0946 mg/L.
Regarding B1, it took 0.062 mg/L to reach a half-maximal effect (EC50).
With B3, the EC50 was 0.0587 mg/L.
In turn, B8 showed an EC50 of 0.0646 mg/L. This EC50 and that of the molecule before are within 1.5-fold of each other.

The next assay has as its target T3, human PD-1 on cells (293T cells transfected with human PD-1) (human, UniProt Q15116 25-288).
T3 construct: whole, on cells; Also used as the target for the functional rows, where PD-1 stands on human T cells
The experiment in a line: FACS binding to 293T cells expressing human PD-1, MFI. As for the experimental part: (§4) The cells were incubated with the indicated antibody (20 ug/ml with the dilution of ⅕) at 4° C. for 1 h. Cells were washed three times with FACS buffer. A secondary antibody (PE Goat anti-mouse: 1:200; PE mouse anti-human: 1:10) was added to the cells at 100 ul/well, and incubated at 4° C. for 40min. Cells were washed three times with FACS buffer and analyzed by FACS Array.
Background: In flow cytometry, cells or beads pass a laser one at a time.
Molecule B1 registered an EC50 of 0.137 mg/L.
B2 gave an EC50 of 0.0337 mg/L.
Molecule B3 displayed an EC50 of 0.0815 mg/L.

In the next assay the target is T2, human PD-1 extracellular domain fused …. Kind of assay: ELISA binding to plate-bound PD-1, OD450 (methods similar to Example 2: plate coated with PD1-hFc). On the procedure: as §3
As to B1, the response was half-maximal at 0.0474 mg/L (EC50).
For the molecule B2, the midpoint of the response, the EC50, lay at 0.0128 mg/L.
Regarding B3, the concentration for a half-maximal effect (EC50) is 0.0456 mg/L.

Another assay has as its target T3, human PD-1 on cells (293T cells …). Kind of assay: FACS blockage on hPD-1-293T cells, competitor biotin PD-L1. As for the experimental part:
Various concentrations of the testing hybridoma antibodies were added to the cell suspension and incubated at 4° C. for 60 minutes in 96 well plates. […] Plates were washed 3 times, and mouse anti-biotin PE antibody (Biolgend, cat# 409004) was added. Flow cytometric analyses were performed using a FACS Array.
as §2
Turning to B4, the IC50 is 0.0843 mg/L.
B5 had an IC50 of 0.0403 mg/L.
Same read-out and setting: the value for B6 was 0.101 mg/L; that for B7 was 0.129 mg/L.
As for B1, the IC50 was found to be 0.0706 mg/L.
The same measure, in the same setting: for B3 the value was 0.0521 mg/L.
In turn, B8 registered a half-maximal inhibitory concentration (IC50) of 0.0614 mg/L.

A further assay shares this target. The experiment in a line: FACS on hPD-1-293T cells. On the procedure:
as §4, §2
As to B4, the EC50 amounted to 0.145 mg/L.
Same read-out and setting: for B5 the value was 0.219 mg/L.
Molecule B6 had an EC50 of 0.244 mg/L.
Same read-out and setting: for B7 the value was 0.221 mg/L; for B1, 0.0916 mg/L; for B3, 0.113 mg/L.
Same read-out and setting: the value for B8 was 0.103 mg/L.
